Experiment [1] deals with T1, human FcγR2A (R131) (human, UniProt P12318 34-217).
T1 construct: also called huFcγR2A
T1 sequence: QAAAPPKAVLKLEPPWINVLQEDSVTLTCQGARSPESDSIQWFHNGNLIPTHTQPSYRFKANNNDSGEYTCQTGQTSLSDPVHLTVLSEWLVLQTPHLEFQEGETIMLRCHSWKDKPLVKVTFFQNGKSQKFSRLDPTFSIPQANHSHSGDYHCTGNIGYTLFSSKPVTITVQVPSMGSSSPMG
The experiment in a line: SPR, mAb printed on chip, FcγR injected; SPR KD of Table 6: measurable but very weak (0.03-fold of IgG1). Background: SPR reads the build-up and loss of mass on a sensor chip optically.

In experiment [2] the target is T2, human FcγR3A (F158) (human, UniProt P08637 17-208).
T2 construct: also called huFcγR3A
The experiment in a line: SPR, mAb printed on chip, FcγR injected; fold-change of KD relative to IgG1, same SPR measurement.

The target of experiment [3] is T1, human FcγR2A (R131). The description is as above.
Another experiment has as its target T3, human FcγR3B (human, UniProt O75015 17-200).
T3 construct: also called huFcγR3B
The experiment in a line: SPR, mAb printed on chip, FcγR injected; ND = not detected.

The target in a further experiment is T4, human FcγR2B (human, UniProt P31994 43-217).
T4 construct: also called huFcγR2B
T4 sequence: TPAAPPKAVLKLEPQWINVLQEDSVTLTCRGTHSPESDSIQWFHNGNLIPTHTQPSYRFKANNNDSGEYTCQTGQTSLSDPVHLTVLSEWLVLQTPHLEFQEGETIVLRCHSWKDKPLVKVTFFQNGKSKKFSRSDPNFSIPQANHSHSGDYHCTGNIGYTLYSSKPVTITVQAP
Described as above.

Another experiment addresses T5, mouse FcγRIII (mouse, UniProt P08508 31-215).
T5 construct: also called mFcγRIII; mFcγR3
T5 sequence: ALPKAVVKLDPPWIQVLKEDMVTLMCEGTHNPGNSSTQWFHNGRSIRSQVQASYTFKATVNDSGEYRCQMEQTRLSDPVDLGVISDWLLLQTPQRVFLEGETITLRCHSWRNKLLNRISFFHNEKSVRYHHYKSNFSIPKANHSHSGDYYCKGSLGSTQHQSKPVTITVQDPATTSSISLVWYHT
Description: BLI, mAb on anti-human Fab-CH1 sensor, FcγR in solution; monomeric mAb:receptor affinity of Table 6 (weak binding). (In general: In BLI a coated tip is dipped into the sample, and binding shifts an interference pattern.)

The target of experiment [4] is T2, human FcγR3A (F158). Description: SPR, mAb printed on chip, FcγR injected; SPR KD of Table 6: measurable but very weak (0.003-fold of IgG1).
The next experiment concerns the target T6, mouse FcγRIIb (mouse, UniProt P08101 30-210).
T6 construct: also called mFcγRIIb; mFcγR2b
T6 sequence: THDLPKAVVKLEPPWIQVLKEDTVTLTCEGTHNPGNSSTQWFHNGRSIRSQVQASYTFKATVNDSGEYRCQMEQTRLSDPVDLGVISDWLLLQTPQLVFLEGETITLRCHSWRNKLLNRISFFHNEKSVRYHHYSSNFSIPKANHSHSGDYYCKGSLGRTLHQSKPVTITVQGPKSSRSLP
The experiment in a line: BLI, mAb on anti-human Fab-CH1 sensor; ND = not detected.

In a further experiment the target is T7, mouse FcγRI (mouse, UniProt P26151 25-297).
T7 construct: also called mFcγRI
T7 sequence: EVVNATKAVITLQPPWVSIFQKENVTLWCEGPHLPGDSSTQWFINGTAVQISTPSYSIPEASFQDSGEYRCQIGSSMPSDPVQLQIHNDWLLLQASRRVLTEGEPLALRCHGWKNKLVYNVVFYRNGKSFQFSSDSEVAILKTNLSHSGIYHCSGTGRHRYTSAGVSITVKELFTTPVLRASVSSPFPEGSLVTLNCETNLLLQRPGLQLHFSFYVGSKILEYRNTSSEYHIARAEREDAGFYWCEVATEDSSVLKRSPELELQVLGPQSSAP
Described as above.

The next experiment has as its target T8, mouse FcγRIV (mouse, UniProt A0A0B4J1G0 21-203).
T8 construct: also called mFcγRIV
T8 sequence: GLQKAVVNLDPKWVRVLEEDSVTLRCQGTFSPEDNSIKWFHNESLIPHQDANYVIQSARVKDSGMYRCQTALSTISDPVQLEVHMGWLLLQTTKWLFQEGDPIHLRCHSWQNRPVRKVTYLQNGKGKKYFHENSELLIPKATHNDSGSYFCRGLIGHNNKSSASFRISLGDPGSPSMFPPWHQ
The experiment is described as above.

By Kd is commonly meant the concentration at which binding is half-saturated.

T2 sequence (P08637 17-208): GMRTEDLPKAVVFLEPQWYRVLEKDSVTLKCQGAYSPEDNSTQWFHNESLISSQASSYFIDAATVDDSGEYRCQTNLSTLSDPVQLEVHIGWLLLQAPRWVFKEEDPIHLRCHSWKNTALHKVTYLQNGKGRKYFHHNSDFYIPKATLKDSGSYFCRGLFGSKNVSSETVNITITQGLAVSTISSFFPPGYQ
T3 sequence (O75015 17-200): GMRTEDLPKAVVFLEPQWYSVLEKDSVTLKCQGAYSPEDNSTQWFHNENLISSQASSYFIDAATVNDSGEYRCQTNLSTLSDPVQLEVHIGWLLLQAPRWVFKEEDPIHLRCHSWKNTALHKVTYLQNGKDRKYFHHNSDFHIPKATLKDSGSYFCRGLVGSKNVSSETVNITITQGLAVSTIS

B1: VIC16-LALA (antibody)
heavy: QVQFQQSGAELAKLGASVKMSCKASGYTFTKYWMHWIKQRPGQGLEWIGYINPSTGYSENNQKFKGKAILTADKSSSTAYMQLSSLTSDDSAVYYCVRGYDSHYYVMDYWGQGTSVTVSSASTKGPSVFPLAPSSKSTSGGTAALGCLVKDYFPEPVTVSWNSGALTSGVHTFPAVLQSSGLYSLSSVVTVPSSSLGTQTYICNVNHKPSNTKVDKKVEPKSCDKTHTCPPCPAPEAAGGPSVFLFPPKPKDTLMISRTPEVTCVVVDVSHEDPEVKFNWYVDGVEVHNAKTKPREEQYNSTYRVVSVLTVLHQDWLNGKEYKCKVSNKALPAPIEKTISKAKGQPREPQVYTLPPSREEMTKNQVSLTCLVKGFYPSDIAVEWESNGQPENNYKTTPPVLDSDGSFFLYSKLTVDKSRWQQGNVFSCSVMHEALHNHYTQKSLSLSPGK
light: DIVITQDTASLAVSRGQRATISCRASESVEYYGTTLMQWYQQRPGQPPKLLIYGASNVESGVPARFSGSGSGTDFSLNIHPVEEDDIAMYFCQQSRKVPYTFGGGTKLEIKRTVAAPSVFIFPPSDEQLKSGTASVVCLLNNFYPREAKVQWKVDNALQSGNSQESVTEQDSKDSTYSLSSTLTLSKADYEKHKVYACEVTHQGLSSPVTKSFNRGEC
On to B1, for which the values for the Kd with human FcγR2A (R131) [1], with mouse FcγRIII and in the experiment with human FcγR3A (F158) [4] were 892 µM, 820 µM and 1700 µM, respectively. Moreover, the “fold-change relative to IgG1” value in the experiment with human FcγR3A (F158) [2] amounted to 0.003 fold; with human FcγR2A (R131) [3], 0.03 fold. Besides, the binding result in the experiment with human FcγR3B was “no binding (tested: FcγR 10 µM to 0.005 µM)”; with human FcγR2B, “no binding (tested: FcγR 10 µM to 0.005 µM)”; in the experiment with mouse FcγRIIb, “no binding (tested: FcγR from 600 nM)”; with mouse FcγRI, “no binding (tested: FcγR from 200 nM)”; with mouse FcγRIV, “no binding (tested: FcγR from 200 nM)”.

The record behind these values is US20240109954A1 (GENERAL HOSPITAL, published 2024).
